According to paper PMC9712993, “A noncanonical RNA-binding domain of the fragile X protein, FMRP, elicits translational repression independent of mRNA G-quadruplexes”:

Target: RGG+CTD (Homo sapiens, UniProt Q06787 527-632)
Assay: EMSA; 10 mM Tris-HCl, 100 mM KCl, 5 mM Mg(OAc)2, pH 7.4, BSA, on ice 1 h; mRNA EMSA 0.4 pmol RNA + 20 pmol protein in 18 ul; oligo EMSA 0.2 (G17: 0.4) pmol RNA + 22 pmol protein in 7 ul; FP 5.5 pmol RNA + 300 pmol protein in 100 ul; EMSA gels 4% PAGE 0.5x TBM (2.5 mM MgCl2), RT
Conditions: protein: recombinant; tags: N-MBP, C-His6; label: 5' FAM; single strand

B1: (U)18 (ssRNA)
RNA: UUUUUUUUUUUUUUUUUU
Does B1 bind?
Result: binds
